Test: yeast display, Sf9 membrane polyspecificity reagent, FACS + sequencing; frameworks hold sequencing errors
Procedure, shortened: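 Nanobodies from a synthetic yeast display library (Saccharomyces cerevisiae BJ5465), induced 36–48 hours with galactose, were stained 1 hour at 4 °C with 10% biotinylated, detergent-solubilized Sf9 membrane reagent, enriched on streptavidin microbeads, then FACS-sorted. Anti-HA (expression) and streptavidin (reagent binding) fluorescence set low and high (top ~1%) gates. Polyreactivity labels come from the gate of origin. Genes were colony-PCR amplified, MiSeq 2 × 250 sequenced and filtered by CDR length.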

Sequence	polyreactivity (PSR sort gate)
QVQLVESGGGLVQAGGSHRLSCAASGRTFYRYPMGWYRQAPGKERELVATINSGTSTSYADSVKGRFTISRDNAKYTVYLQMNSLKPEDTAVYYCAAKLWTLSFSSRFGGMYYWGQGTQVTVSS	high polyreactivity
QVQLVESGGGLVQAGGSLRLSCAASGSIFDSYAMGWYRQAPGKDRELVAAISGNSDSTYYADSVKGRFTISRDNATNTVYSQMNSLKAEDTAVYNCNARGRLPYLEFYYWGQGTQVTVSS	low polyreactivity
QVQLVESGGGLVQAGGSLRLSCAASGRTFPRYTMGWYRQAPGKERELVAASATGGSTYYADSVKGRFTISRDNAKNTVYLQMNSLKPEDTAVYYCAAYKLYPYYSTEYDYWGQGTQVTVSS	high polyreactivity
QVQLVESGGCLVQAGGSLRLSCAASGSTLIEYAMGWYRQAPGKESELVARISKSGDSTYYADSVKGRFTISRDNAKNTVYLQMISLKPEDTAVYYCAKYHRDGFYRSYLRTFDFGYWGQGTQVTVSS	low polyreactivity
QVQLVESGGGLVQAGGSLRLSCAASGSIFSYYAMGWYRQAPGKERELVATISSGGSTNYADSVKGRFTISRDNAKNTVYLQMNSLKPEDTAVYYCAATIGHNGFDYWGQGTQVTVSS	low polyreactivity
QVQLVESGGGLVQAGGSLRLSCAASGSIFKPYAMGWYRQAPGKERELVARISWSTGRTYYADSVKGRFTISRDNAKNTVYLQMNSLKPEDTEVYDCDAAVAVRYGYWGQGTQVTVSS	high polyreactivity
QVQLVESGGGLVQAGGSLRLSCAASGSIFRRYTMGWYRQAPGKERELVAAISRVGNTNYADSVKGRFTISRDNAKNTVYLQMNSLKPEDTAVYYCAARAIGYRYTPGLNYWGQGTQVTVSS	high polyreactivity
QVQLVESGGGLVQAGGSLRLSCAASGSILSWYAMGWYRQAPGKERELVAAITSGASTYYADSVKGRFTISRDNAKNTVYLQMNSLKPEDTAVYYCAAYPPSQRAEYDYWGQGTQVTVSS	low polyreactivity
QVQLVESGGGLVQAGGSLRLSCAASGRTFYKNTMGWYRQAPGKERELVATISQRGGSTYYADSVKGRFTISRDNAKNTVYLQMNSLKPEDTAVYYCNARRTSYTSQGYDYWGQGTQVTVSS	high polyreactivity
QVQLVESGGGLVQAGGSLRLSCAASGFTIGSNVMGWYRQAPGKERELVAAISSRGGSTYYADSVKGRFTISRDNAMNTVYLQMNSLKPEDTAVYDCAADAYYRGGWGDYWGQGTQVTVSS	high polyreactivity
QVQLVESGGGLVQAGGSLRLSCAASGRTFVYNAMGWYRQAPGKERELVAAISSSGGSTRYADSVKGRFTISRDNAMNTVYLQMNSLKPEDTAVYYCATRTKAYLYTYYYWGQGTQVTVSS	high polyreactivity
QVQLVESGGGLVQAGRSLRLICAASGSTFYVNAMGWYRQAPGKEREFVAAIRWPGGSTYYADSVKWRFTISRDNAKNTFYVQMNSLKPEDTAVFYCAARIKYRYVWGQGTQVTVSS	low polyreactivity
QVQLVESGGGLVQAGGSLRLSCAASGFIFPGHAMGWYRQAPGKERELVAAISTSGGSTYYADSVKGRFTISRDNAKNTVYLQMNSLKPEDTAVYYCATKRPYVDDYGYWGQGTQVTVSS	high polyreactivity
QVQLVESGGGLVQAGGSLRLSCAASGITFKTYDMGRYRQAPGKERELVATINRGSRTNYADSVKGRFTISRDNAKNTVYLQMNSLKPEDTAVYYCSAHDTTFIPSPDGDYLGQGTQVTVSS	low polyreactivity
QVQLVESGGGLVQAGGSLRLSCAASGSIFYRNVMGWYRQAPGKERELVASINFSGGSTYYADCVKGRFTISRDNAKNTVYLQMNSLKPEDTAVYYCAARTVHIYTRMYYWGQGTQVTVSS	high polyreactivity
QFQLVESGGGLVQAGGSLRLSCAASGIIFSLYAMGWYIQAPGKERELVAAITTGGRTYYADSVKGRFTISRDNAKNTVYFQMNSLKPEDTAVYYCAAQGPWQGGTTLSTNRGYWGQGTQVTVSS	high polyreactivity
QVQLVESGGGLVQAGGSLRLSCAASGLTFRGYAMGWYRQAPGKERELVAAITSSAGRTYYADSVKGRFTISRDNAKNTVYLQLNSLKQEDTAVYYCAAAHSYTTRWGYYKFNYWGQGTKVTVSS	high polyreactivity
QVQLVESGGGLVQAGGSLRLSCAASGSTIVRYVMGWYRQAPGKERELVAAISRRGGSTYYADSVKGRFTISRDNAKNTVYLQMNSLKPEDTAVYYCARTVGYRTLLESDSWGQGTQVTVSS	high polyreactivity
QVQLVESGGGLVQAGGSLRLSCAASGFIFANAIGWYRQAPGKEMELVAAITWSGDSTYYADSVKGRFTISRDNAKNTVYLQMNSLKPEDTAVYYCAAVVTNAYRYDYWGQGTQVTVSS	low polyreactivity
QVQLVESAGGLVQAGVSLRLSCAASGRTFYWYTMGWYRQAPGKERELVAAISSAGSTYYADSVKGRFTISRDNAKNTVYLQMNSLKPEDTAVYSCAAGSHSGRAYYYWGQGTQVTVSS	high polyreactivity
QVQLVESGGGLVQAGGSLRLRCAASGFTFDLYAMGWYRQAPGKERELVAAISWSGGSTRYADSVKGRFTISRDNAKNTVYLQMNSLKPEDTAVYYCAKPVLVGLGSRYDYWGQGTQVTVSS	high polyreactivity
QVQLVESGGGLVQAGGSLRLSCAASGRILGSYAMGWYRQAPGKERELVAAISRGGGRTYYADSVKGRFTISRDNAKNTVYLQMNSLNPEDTAVYYCNAPVTGSSSYFSQHFDYWGQGTQVTVSS	high polyreactivity

Sequence	polyreactivity (PSR sort gate)
QVQLVESGGGLVQAGGSLRLSCAASGSILGTYAMGWYRQAPGKERELVAAISSSGRTSYADSVKGRFTISRDNAKNTVYLQMNSLKPEDTAVYYCNASNYIVLINDPDAAPWLYDYWGQGTQVTVSS	low polyreactivity
QVQLGESGGGLVQAGGSLRLSCAASGSILTPYSMGWYRQAPGKERELDAAITFRGGSTYYADSVKGRFTISRDNAKNTVYLQMNSLKPEDTAVYYCAAGWYWSYWDPYDYWGQGTQVTVSS	high polyreactivity
QVQLVESGGGLVQAGGSLRLSCAASGSTFPAYAMGWYRQAPGKERELVAGISSGGRTYYADSVKGRFTISRDNAKNTVYLQMNSLKPEDTWVYYCAAFRFYWQRPERYYYWGQGTQVTVSS	high polyreactivity
QVQLVESGGGLVQAGGSLRLSCAASGVTFGGYAMGWYRQAPGKERELVAAISGSGGRTYYADSVKVRFTISRDNAMNTVYLQMNSLKPEDTAVYYCAADRASPYLENYWGQGTQVTVSS	low polyreactivity
QVQLVESGGGLVQAGGSLRLICAASGRTFADYAMGWYRQAPGKERELVAAISWRGGSTYYADSVKGRFTISRDNAKITVYLQMNSLKPEDTAVYYSNKAYPAHYDYLGQGTQVTVSS	low polyreactivity
QVQLVESGGGLVQAGGSLRLSCAASGGTFTRYAMGWYRQAPGKEREFVAAISGSGGSTYYADSVKGRFTISRDNAKNTVYLQMNSLKPEDTAVYYCNKVPVYPPSYYWGQGTQVTVSS	low polyreactivity
QVQLVESGGGLVQAGGSLRLSCAASGSIFNYNAMGWYREAPRKERELVAAITWRGGTTSYADSVKGRFSISRDNAKNTVYLQMNSLKPEDTAVYYCNAYQWRHRYTMYYWGQGTQVTVSS	high polyreactivity
QVQLVESGGGLVQAGGSLRLSCAASGISFNSYTMGGYRQAPGKERELVAAITASGGTTRYADSVKGRFTISRDNAKNTVYLQMNSLKPEYTAVYYCNALPFRYGKRRGYWGQGTQVTVSS	low polyreactivity
QVQLVESGGGLVQAGGSLRLSCAASGIIFEPNAMGWYRQAPGKERELVAAIDSGGITYYADSVKGRFTISRDNAKNTVYLQMNSLKPEDTAVYYCAAEAVVVTKYRYWTYGLYDYWGQGTQVTVSS	high polyreactivity
QVQLVESGGGLVQAGGSLSLSCAASGSTFIKNAMGWYRQAPGKESELVAAINWSGTRTYYADSVKGRFTISRDNANNTVYLKMNSLKPEDTAVYYCAKVIARFVRYDYWGQGTQVTVSS	high polyreactivity
QVQLVESGGGLVQAGGSLRLRCAASGRIFTTYAMVWYRQAPGKERELVADITTGGGTYYADSVKGRFTISRDNAKNTVYLQMNSLKPEDTAVYYCNADYSADYYWYYYWGQGTQVTVSS	low polyreactivity
QVHLVESGGGLVQAGGSLRLSCAASGNIFGLYAMGWYRQAPGKERELVAAIRWIGGRTYYADSVKGRFTISRDNAKNTVYLQMNSLKPEDTAVYYCNAEYIVYYRGYDYWGHGTQVTVSS	high polyreactivity
QVQLVESVGGLVQAGGSLRLSCAASGRIFGFSTMGWYRQARGKDRELVATISWSGSGTYYADSVKGRFTISRDNAYNTVYLQMNRLKPEDTAVYYCNADWYYFGYDYWGQGTQVTVST	low polyreactivity
QVQLVESRVGLVQAGGSLRLSCAASGITLYYYALGWYRHAPGKEREFVAAITWRGTTTYYADSVKGPFTISRDNAKNTVYLQMNSLKPEDTALYYCAAEHEQRVADYYYWGQGTQVTVSS	low polyreactivity
QVQLVESGGGLVQAGGSLRLSCAASGRTFKYYAMGWYRQAPGKERELVAAISRSGGSTYADSVKGRFTISRDNAKNTVYLQMNSLKPEDTAVYYCATGWWRQGVASFDYDYWGQGTQVTVSS	high polyreactivity
QVQLVESGGCLVQAGGSLRLSCAASGSIFDYNAMGWYRQAPGKEREFVAAISSSAGSTYYADSVKGRFTISRDNAKNTVYLQMNSLKPEDTAVYYCAADWYDFSFPYYEYEFWGQGTQVTVSS	low polyreactivity
QVQLVESGGGLDQAGGSLRLSCAASGSIFYYYVMGWYRQAPGKERELVAAITNSDRTYYADSVKGRFTISRDNAKNTVYLQMNSLKLEDTAVYYCNADWFDQYYRDGLRGRYGYWRQGTQVTVSS	low polyreactivity
QVQLVESGGGLVQAGGSLRLSCAASGSNFVGYAMGWYRQAPGKERELVAAISWSGDSTYYADSVKGRFTISRDNAKITVYLQMNSLKPEDTAVYYCAVDYAEIGPRREVEYDYWGHGTQVTVSS	low polyreactivity
QVQLVESGGALVQAGGSLRLSCAASAGNFTGYAMGWSRQAPGKERELVATITSGGSTNYADSVKGRFTISRDNAKNSFYFQLNSLKPEDTAVYYCALDYIGDTPIWQYDYWGQGTQVTVSS	low polyreactivity
QVQLVESGGGLVQAGGSLRLSCAASGSILYSYPMGWYRQAPGKERELVAAITGDGASTTYADSVKGRFTISRDNAKNTVYLQLNSLKPEDTAVYYCKAGRESDDVSEGSQRICQFDYWGPGTQVTVSS	low polyreactivity
QVQLVESGGGLVQAGGSLRLSCAASGSIFSYKTMGWYRQAPGKERELVAAISSDGSTYYADSVKGRFTISRDNAKNTVYLQMNSLKPEDTAVYYCAATYYPYEHYYWGQGTQVTLSS	low polyreactivity
